19 variants from the RNAGym collection of RNA variant scans (doi:10.1073/pnas.2313332121) can be followed below.

B1: TPR 5TU (parent)
chain: GGAUCUUCUCGAUCUAACAAAAAAGACAAAUCUGCCACAAAGCUUGAGAGCAUCUUCGGAUGCAGAGGCGGCAGCCUUCGGUGGCGCGAUAGCGCCAACGUUCUCAACUAUGACACGCAAAACGCGUGCUCCGUUGAAUGGAGUUUAUCAUG

Fewer inactive variants are shown than the library holds. Some results are limits rather than exact numbers.

In the data set the parent is B1. As to the kind of experiment: polymerase ribozyme fitness, log enrichment relative to wild type (log ratio); higher = more active; in vitro selection for triplet polymerase activity. In short, it runs like this:
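Mutant libraries of both subunits of a heterodimeric triplet polymerase ribozyme were PCR-built, transcribed, and selected once in triplicate, with frozen incubation at −7 °C and capture of gel-excised extended constructs on streptavidin beads before RT-PCR. Illumina sequencing of input and output libraries was filtered to genotypes with ≥10 input reads and ≥1 read per output. Fitness is the logarithm of genotype enrichment over wild-type enrichment, using inverse-variance-weighted replicate averages. The logarithm is base 2.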
In the case of GGAUCUUCUCUAUCUAACAAAAAAGACAAAUCUGCCACAAAGCUUGAGAGCAUCUUCGGAUGCAGAGGCGGCAGCCUUCGGUGACGCGACAGCGCCAACGUUCUCAACUAUGACACGCGAAACGAGUGCUCCGUUGAAUGGAGUUUAUCAUG [G11U G84A U90C A119G C125A], the “polymerase ribozyme fitness (log ratio)” value is ≤ -4.2.

Turning to GGAUCUUCUCUAUCUAACAAAAAAGACAAAUCUGCCAAACAGCUUGAGAGCAACUUCAGAUGCAGAGGCGGCAGCCUUCGGUGGCGCGAUAGCGCCAACGUUCUCAACUAUGACACGCAAAACGCGUGCUCCGUUGAAUGGAGUUUAUCAUG [G11U C38A A40C U53A G58A], the “polymerase ribozyme fitness (log ratio)” value is -3.76.

With GGAUCUUCUCUAUGUAACAGAAAAGAGAAAUCUGCCACAAAGCUUGAGAGCUUCUUCGGAUGCAGAGGCGGCAGCCUUCAGUGGCGCGAUAGCGCCAACGUUCUCAACUAUGACACGCAUAACGCGUGCUCCGUUGAAUGUAGGUUAUCAUG [G11U C14G A20G C27G A52U G80A A120U G141U U144G], the “polymerase ribozyme fitness (log ratio)” value was ≤ -4.2.

GGAUCUUCUCGCUCUGACAAAAAAGACAAAUCUGCCACUAAGCUUGAGAGCAUCUUCGGAUGCAGAGGCGGCAGCCUUCGGUGGCGCGAUCGCGCCAACGUUCUCAACUAUGACACGCAAAACGCGUGCUCCGUUGAAUGCAGUUUAGCAUG [A12C A16G A39U A91C G141C U148G]: the “polymerase ribozyme fitness (log ratio)” value was ≤ -4.2.

In the case of GGAUCUUCUCUAUCUAACAAAAAAGACAAAUCUGCCACAUAGCUUGAGAGCAUCUUCGGAUGCAGAGGCGGCAGCCUUCGGUGACGCGAUAGCGCCAACGUUCUCAACUGUGACACGCAAAACGCGUGCUCCGUUGAAUGGAGUUUAUCAUG [G11U A40U G84A A110G], the “polymerase ribozyme fitness (log ratio)” value was -3.56.

As to GGAUCUUCUCUAUCUAACAAAAAAGACAAAUCUGCCACAAAGCUUGAGAUCAUCUUCGGAUGCAGAGACGGCAGCCUUCGGUGUCGCGAUAGCGCCAACGUUCUCAACUAUGAUUCGCAAAACGCGUGCUCCGUUAAAUGGAGUUUAUCAUG [G11U G50U G68A G84U C114U A115U G136A], the “polymerase ribozyme fitness (log ratio)” value is ≤ -4.2.

GGAUCUUCUCUAUCUAACAAAAAAGACAAAUAUGCCACAAAGCUUGAGAACAUCUUCGGAUGCAGAGGCGGCAGCCUUCGGUGGCGCGAUAGCGCCAACGUUCUCAACUAUGACAUGCAAUACGCGUGCUCUGUUGAAUGGAGGUUAUCAUG [G11U C32A G50A C116U A121U C132U U144G]: the “polymerase ribozyme fitness (log ratio)” value is ≤ -4.2.

For GGAUCUUCUCUAUCUAACAAAAAACACAAAUUUGCCACAAAGCUUGAGACCAUCUUCGGGUGCAGAGGCGGCAGCCUUCGGUGGCGCGAUAGCGUCAACGUUCUCAACUAUGACACGCAAAACGCGUGCUCCGUUGAAUGGAGUUUAUCAUG [G11U G25C C32U G50C A60G C95U], the “polymerase ribozyme fitness (log ratio)” value was ≤ -4.2.

For the variant GGAUCUUCUCGCUCUCACAAAAAAGACAAACGUGCCACAAAGCUUGAGAGCAACUUCGGAUGCAGAGGCGGCAGCCUUCGGUGGCGCGAUAGGGCCAACGUUCUCAACUAUGACACGGAAAACGCGUGCUCCGUUGAAUGGAGUUUAUCACG [A12C A16C U31C C32G U53A C93G C118G U151C], the “polymerase ribozyme fitness (log ratio)” value was ≤ -4.2.

Regarding GGAUCUUCUCUAUCUAACAAAAAAGACAAAUCUGCCACAAAGCUUGAGAGCAUCUUCGGAAGCAGAGGCGGCAGCCUUCGGUGGCGUGAUAGCGCCAACGUUCUCAACUAUGACACGCAAAACGCGUGCUCCGUUGAAUGGAGUUUAUCAUG [G11U U61A C87U], the “polymerase ribozyme fitness (log ratio)” value is -3.78.

With GGAUCUUCUCUAUCUAACAAAAAAGACAAAUCUGCCACAAAUCUUGAGAGCAUCUUCGGAUGCAGAGACGGCAGCCUUCGGUGGCUCGAUAGCGGCAACGUUCUCAACUAUGACACGCAAAACGCGUGCUCCGUUGCAUGGAGUUUAUCAUG [G11U G42U G68A G86U C95G A137C], the “polymerase ribozyme fitness (log ratio)” value is ≤ -4.2.

GGAUCUUCUCUAUCUAAGAAAAAAGACAAAUCUGCCACAAAGCUUGAGAGCAUAUUCGGAUGCAGAGGCGGCAGCCUUCGGUGGCGCAAUAGCGCCAACGUUCUCAACUAUGACACGAAAAACGCGUGCUCCGUUGAAUGGAGUUUAUCAUG [G11U C18G C54A G88A C118A]: the “polymerase ribozyme fitness (log ratio)” value was ≤ -4.2.

In the case of GGAUCUUCUCUAUCUAACAAAAAAGACAAAUCUGCCACAAACCUUGCGAGCAUCUUCGGAUGCAGAGGCGGCAACCUUCGGUGGCGCGAUAGCGCGAACGUUCUUAACUAUGACACGCAAAACGCGUGCUCCGUUGAAUAGAGUUUAUCAUG [G11U G42C A47C G74A C96G C105U G140A], the “polymerase ribozyme fitness (log ratio)” value was ≤ -4.2.

On to GGAUCUUCUCGCUCUAACAAGAAAGACAAAUCUGCAACAAAGCUUGAAAGCAUCUUCGGAUGCAGAGGCGGCAGCCUUCGGUGGCGCGAUAGAGCCAACGUUCUCAACUAUGACACGCAAAACGCGUGCUCCGUGGAAUGGAGUUUAUCAUG [A12C A21G C36A G48A C93A U135G], for which the “polymerase ribozyme fitness (log ratio)” value was ≤ -4.2.

For the variant GGAUCUUCUCGCUCUAACAACACAGACAAAUCUGCCACAAAGCUUGAGAGCAUCUUCGGAUGCAGAGGCGGCAGCCUUCGGUGGCGCGAUAGCGCCAACGUUCUCAACUAUGACACGCAAAACGCGUGCUCCGUUAAAUGGAGUUUAUCAUG [A12C A21C A23C G136A], the “polymerase ribozyme fitness (log ratio)” value was ≤ -4.2.

For the variant GGAUCUUCUCGCUCUAACAAAAAGGACAAAUCUGCCACAAAGCUUGAGAGCCUCUUCGGCUGCAGAGGCGGCAGCCUUCGGUGGCGCGAUAGCGCCAACGUUCUCAACUAUGACACGCAAAACGCGUGCUCCGUUGAAUGGAGUUUAUCAUG [A12C A24G A52C A60C], the “polymerase ribozyme fitness (log ratio)” value is ≤ -4.2.

Take GGAUCUUCUCUAUCUAACAAAAAAGACAAAUCUGCCACAAAGCUUGAGAGCAUUUUCGGAUGCAGAGGCGGAAGCCUUCGGUGGCGCGAGAUCGCCAACGUUCUCAACUAGGACACGCAAAACGCGUGCUCCGUUGAAUGGAGUUUAGCAUG [G11U C54U C72A U90G G92U U111G U148G]: the “polymerase ribozyme fitness (log ratio)” value was ≤ -4.2.

With GGAUCUUCUCUAUGUAACAAAAAAGGCAAAUCGGCCACAAAGCUUGAGAGCAUCUUAGGAUGCAGAGGCGGCAGCCUUCGGUGGCGCGAUAGCGCCAAGGUUCUCAACUAUGACACGCAGAACGCGUGCUCCGUUGAAUGGAGUUUAUCAUG [G11U C14G A26G U33G C57A C99G A120G], the “polymerase ribozyme fitness (log ratio)” value is ≤ -4.2.

As to GGAUCUUCUCUAUCUAACAAAAAAGACAAAUCUGCCACAAACCUUGAGAGCAUCUUCGGAUGCAGAGACGGCAGCCUUCGGUGGUGCGAUAGCGCCAACGUUCUCAACUAUGACACGCAAAACGCGUUCUCGGUUGAAGGGAGUUUAACAUG [G11U G42C G68A C85U G128U C132G U139G U148A], the “polymerase ribozyme fitness (log ratio)” value was ≤ -4.2.
